The record followed here is PMC7486241 (Cell Host & Microbe, 2020).

For assay [1], the target named is H3N2 A/Texas/50/2012 hemagglutinin (HA), biotinylated recombinant (influenza A virus A/Texas/50/2012 (H3N2), biotin). Kind of assay: BLI. The settings on record: both partners purified.
The target of assay [2] is H9N2 A/Hongkong/1073/1999 hemagglutinin (HA), biotinylated recombinant (influenza A virus A/Hongkong/1073/1999 …, biotin). The assay is described as follows: BLI. The following applies: both partners purified.
Assay [3] has as its target H7N9 A/Shanghai/02/2013 hemagglutinin (HA), biotinylated recombinant (Influenza A virus A/Shanghai/02/2013 …, UniProt R4NN21, biotin). Kind of assay: BLI. The settings on record: both partners purified.
The target in assay [4] is T1, recombinant HA of H1N1 A/California/04/2009, biotinylated (Influenza A virus A/California/04/2009 …, UniProt C3W5S1, strain, biotin).
T1 construct: source: plasmid pCMV/R-HA-AviHis, Andrews et al., 2017
The assay is described as follows: Meso Scale Discovery (MSD) electrochemiluminescence binding assay. The following applies: both partners purified.

The target of assay [5] is recombinant HA of H7N9 A/Shanghai/02/2013, biotinylated (Influenza A virus A/Shanghai/02/2013 …, UniProt R4NN21, strain, biotin). The assay is described as above. The settings on record: both partners purified.
The target in assay [6] is T1, recombinant HA of H1N1 ….
The target in assay [7] is T2, recombinant HA of H5N1 A/Indonesia/05/2005, biotinylated (Influenza A virus A/Indonesia/05/2005 …, UniProt C5MRF2, strain, biotin).
Assay [8] deals with T2, recombinant HA of H5N1 …. Kind of assay: Meso Scale Discovery (MSD) electrochemiluminescence binding assay. The settings on record: both partners purified.
For assay [9], the target named is T3, recombinant HA of H3N2 A/Hongkong/1/1968, biotinylated (Influenza A virus A/Hong Kong/1/1968 …, UniProt Q91MA7, strain, biotin).
T3 construct: source: plasmid pCMV/R-HA-AviHis, Andrews et al., 2017
The assay is described as above. The settings on record: both partners purified.

The target of assay [10] is recombinant HA of H1N1 A/New Caledonia/20/1999, biotinylated (Influenza A virus A/New …, UniProt Q6WG00, strain, biotin). Described as above. The following applies: both partners purified.
Assay [11] addresses recombinant HA of H3N2 A/Texas/50/2012, biotinylated (Influenza A virus A/Texas/50/2012 (H3N2), UniProt R4L1D1, strain, biotin). The description is as above. The following applies: both partners purified.
Assay [12] deals with recombinant HA of H9N2 A/Hongkong/1073/1999, biotinylated (Influenza A virus A/Hong Kong/1073/1999 …, UniProt Q9ICY5, strain, biotin). The description is as above. The settings on record: both partners purified.
For assay [13], the target named is T4, HA ectodomain of A/California/04/2009 (H1N1), cleaved mature HA (HA1/HA2) (influenza A virus A/California/04/2009 …).
T4 construct: copies: 3 + 3
Kind of assay: crystal structure. The settings on record: both partners purified.

Like-named read-outs stand apart in the source and are kept apart here.

B1: 58-6E11 Fab (Fab, V domains shown)
VH: QVQLPQSGPGLVKPSQTLSLTCAISGDSVSSNSAVWTWIRQSPSRGLEWLGRTYYRSKWYNDYAVSVESRITINPDTSKNQFSLQLKSVTPEDTAVYFCARSGITIFGVSVMAMDIWGQGTTVIVSS
VL: EIVLTQSPGTLSLSPGERATLSCRASQNVAVSYLAWYQQKPGQPPRLLIYGASSRATGIPGRFTGSGSGTDFTLTINRLEPEDSAVYYCQQYATSPRALTFGGGTKVEIK
Consider B1, for which the binding result in assay [1], in assay [2] and in assay [3] was “no binding (tested: 3200 nM (highest Fab concentration))” each time.

B2: early intermediate of clonotype B, IgG (antibody, V domains shown)
VH: QVQLQQSGPGLVKPSQTLSLTCAISGDSVSSNSAVWTWIRQSPSRGLEWLGRTYYRSKWYNDYAVSVKSRITINPDTSKNQFSLQLKSVTPEDTAVYYCARSGITIFGVIIMAMDIWGQGTTVTVSS
VL: EIVLTQSPGTLSLSPGERATLSCRASQNVAVSYLAWYQQKPGQPPRLLIYGASSRATGIPDRFTGSGSGTDFTLTINRLEPEDSAVYYCQQYGSSPRALTFGGGTKVEIK
In the case of B2, the binding result in assay [4] is recorded as “binds”.

B3: 54-1G05 VL early intermediate, IgG (54-1G05 VH paired with VL from the early intermediate of clonotype B) (antibody, V domains shown)
VH: QVQLQQSGPRLVKPSQTLSLTCAISGDSVSSSSAVWTWIRQSPSRGLEWLGRTYYRSKWYDDYAVSVQGRITINPDTSKNQISLQLNSVTPDDTAVYYCARSSINIFGVFVMAMDVWGQGTAVTVSS
VL: EIVLTQSPGTLSLSPGERATLSCRASQNVAVSYLAWYQQKPGQPPRLLIYGASSRATGIPDRFTGSGSGTDFTLTINRLEPEDSAVYYCQQYGSSPRALTFGGGTKVEIK
notes: IgG format
On to B3, for which the binding result in assay [5] was “binds”.

B4: ClonB UCA Fab (Fab, V domains shown)
VH: QVQLQQSGPGLVKPSQTLSLTCAISGDSVSSNSAVWTWIRQSPSRGLEWLGRTYYRSKWYNDYAVSVKSRITINPDTSKNQFSLQLKSVTPEDTAVYYCARSGITIFGVIIMAMDIWGQGTTVTVSS
VL: EIVLTQSPGTLSLSPGERATLSCRASQNVAVSYLAWYQQKPGQPPRLLIYGASSRATGIPDRFTGSGSGTDFTLTINRLEPEDSAVYYCQQYGSSPRALTFGGGTKVEIK
notes: also called early intermediate of clonotype B; EI (clonotype B)
Consider B4, for which the binding result in [1] and in assay [2] was “no binding (tested: 3200 nM (highest Fab concentration))” throughout.

B5: 54-1B01 (antibody, V domains shown)
VH: QVQLQQSGPGVVKPSQSLALTCAISGDSVSNDRVAWIWIRQSPSRGLEWLGRTYYRSKWYNDYANSVRGRMTINPDTSKNQFSLNLDSVTPDDTAVYYCARGMIFGRPLTGWYFDFWGRGTLVTVSS
VL: EIVLTQSPGTLSLSAGERVTLFCRASQHVSSGYLAWYQQKPGQAPRLLIYGATNRATGIPDRFSGSGSGTDFALTISRLEPEDFAVYYCQQFDSSSMYTFGQGTKLEIK
With B5, the binding result in assay [6] and in assay [7] was “binds” in each case.

B6: 54-1G07 (clonotype A), IgG (antibody, V domains shown)
VH: QVQLQQSGPGLVKPSQTLALTCGISGDTVSNNRVAWNWIRQSPSRGLEWLGRTYYRSKWYSDYSKSVTGRMTINPDTSKNQFSLHLDSVTPADTAVYYCARGMIFGWPLTGWYFDLWGRGTLVTVSS
VL: EIVLTQSPGTLSLSPGERVTLLCRASHHVSSGYLAWYQQKPGQAPRLLIYGATNRATGIPDRFSGSGSGTDFALTISRLEPEDFAVYYCQQFDSSSMYTFGQGTKLEIK
notes: IgG format
Consider B6, for which the binding result in [4] and in assay [8] was “binds” throughout.

B7: 54-1G07 Fab (Fab, V domains shown)
VH: QVQLQQSGPGLVKPSQTLALTCGISGDTVSNNRVAWNWIRQSPSRGLEWLGRTYYRSKWYSDYSKSVTGRMTINPDTSKNQFSLHLDSVTPADTAVYYCARGMIFGWPLTGWYFDLWGRGTLVTVSS
VL: EIVLTQSPGTLSLSPGERVTLLCRASHHVSSGYLAWYQQKPGQAPRLLIYGATNRATGIPDRFSGSGSGTDFALTISRLEPEDFAVYYCQQFDSSSMYTFGQGTKLEIK
Consider B7, for which the binding result in [2] is “no binding (tested: 3200 nM (highest Fab concentration))”.

B8: early intermediate of clonotype A, IgG (antibody, V domains shown)
VH: QVQLQQSGPGLVKPSQTLSLTCAISGDSVSSNSAAWNWIRQSPSRGLEWLGRTYYRSKWYNDYAVSVKSRITINPDTSKNQFSLQLNSVTPEDTAVYYCARGMIFNWPLGGWSFDLWGRGTLVTVSS
VL: EIVLTQSPGTLSLSPGERATLSCRASQSVSSSYLAWYQQKPGQAPRLLIYGASSRATGIPDRFSGSGSGTDFTLTISRLEPEDFAVYYCQQFDSSSMYTFGQGTKLEIK
As to B8, the binding result in assay [4] is “binds”.

B9: 54-1G05 (clonotype B), IgG (antibody, V domains shown)
VH: QVQLQQSGPRLVKPSQTLSLTCAISGDSVSSSSAVWTWIRQSPSRGLEWLGRTYYRSKWYDDYAVSVQGRITINPDTSKNQISLQLNSVTPDDTAVYYCARSSINIFGVFVMAMDVWGQGTAVTVSS
VL: EIVLTQSPGTLSLSPGERVTLSCRASQTVYNSYLAWYQQKPGQAPTLLIYGTSTRATGVPDRFSGSGSGTVFTLTISRLEPEDFAVYFCQQYSTSPRALTFGGGTKVEIK
notes: source: Expi293 cells, transfected, purified from the supernatant (Protein A)
B9: the binding result in assay [9], in [10], in [5], in [11], in [4] and in assay [12] was “binds” in each case. Besides, the binding result in assay [8] is reported as “binds”.

B10: 54-4H03 Fab (Fab, V domains shown)
VH: QVQLQQSGPGLVKPSQTLSLTCAISGDSVSSNSVAWNWIRQSPSRGLEWLGRTYFRSKWYTDYAESLKSRMTINPDTSKNEFSLHLKSVTSDDTAVYYCVRGIIFNWPLGGWSFDLWGRGTLVSVSS
VL: EIVLTQSPGTLSLSPGDSATLSCRASQSVASSYLAWYQQKPGQSPRLLIYATINRAADIPDRFSGSGSGTDFALTISRLEPEDFAVYYCQQFDSSSMYTFGQGTKLEIT
Consider B10, for which the binding result in [13] is reported as “binds”.

B11: 54-4H03 (clonotype A), IgG (antibody, V domains shown)
VH: QVQLQQSGPGLVKPSQTLSLTCAISGDSVSSNSVAWNWIRQSPSRGLEWLGRTYFRSKWYTDYAESLKSRMTINPDTSKNEFSLHLKSVTSDDTAVYYCVRGIIFNWPLGGWSFDLWGRGTLVSVSS
VL: EIVLTQSPGTLSLSPGDSATLSCRASQSVASSYLAWYQQKPGQSPRLLIYATINRAADIPDRFSGSGSGTDFALTISRLEPEDFAVYYCQQFDSSSMYTFGQGTKLEIT
As for B11, the binding result in [5] and in assay [4] was “binds” in each case.

B12: 54-4H03 VH G100cT/S100fY, IgG (54-4H03 light chain) (antibody, V domains shown)
VH: QVQLQQSGPGLVKPSQTLSLTCAISGDSVSSNSVAWNWIRQSPSRGLEWLGRTYFRSKWYTDYAESLKSRMTINPDTSKNEFSLHLKSVTSDDTAVYYCVRGIIFNWPLTGWYFDLWGRGTLVSVSS
VL: EIVLTQSPGTLSLSPGDSATLSCRASQSVASSYLAWYQQKPGQSPRLLIYATINRAADIPDRFSGSGSGTDFALTISRLEPEDFAVYYCQQFDSSSMYTFGQGTKLEIT
In the case of B12, the binding result in assay [5] and in assay [8] was “no binding” throughout.
